One block for each molecule: values may come before it.
How the values were obtained:
G9a and GLP = target: T1, G9a and GLP (Homo sapiens, UniProt Q96KQ7+Q9H9B1); assay: Triple SILAC pull-down after UNC0638 treatment of 293T cells, DMSO/UNC0638 ratio of protein captured by 3×MBT; format: cell-based; design: endogenous in cells; host or cells: HEK 293T; conditions: for Relative to UNC0638 UNC Heavy / Relative to UNC0638 UNC Light: SILAC ratio DMSO/UNC0638 of protein pulled down with 3xMBT; for Relative to UNC0638 UNC Heavy: UNC0638 in heavy SILAC media; for Relative to UNC0638 UNC Light: UNC0638 in light SILAC media; for Relative to UNC0638 Average: average of UNC Light and UNC Heavy experiments;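 for all read-outs here: mass spectrometry (Q-Exactive) SILAC quantitation, DMSO/UNC0638 ratio computed after subtracting 3×MBTD355N mutant pull-down background, only proteins with at least twofold 3×MBT over mutant signal considered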
T1 sequence (Q96KQ7 2-1210 limits assumed): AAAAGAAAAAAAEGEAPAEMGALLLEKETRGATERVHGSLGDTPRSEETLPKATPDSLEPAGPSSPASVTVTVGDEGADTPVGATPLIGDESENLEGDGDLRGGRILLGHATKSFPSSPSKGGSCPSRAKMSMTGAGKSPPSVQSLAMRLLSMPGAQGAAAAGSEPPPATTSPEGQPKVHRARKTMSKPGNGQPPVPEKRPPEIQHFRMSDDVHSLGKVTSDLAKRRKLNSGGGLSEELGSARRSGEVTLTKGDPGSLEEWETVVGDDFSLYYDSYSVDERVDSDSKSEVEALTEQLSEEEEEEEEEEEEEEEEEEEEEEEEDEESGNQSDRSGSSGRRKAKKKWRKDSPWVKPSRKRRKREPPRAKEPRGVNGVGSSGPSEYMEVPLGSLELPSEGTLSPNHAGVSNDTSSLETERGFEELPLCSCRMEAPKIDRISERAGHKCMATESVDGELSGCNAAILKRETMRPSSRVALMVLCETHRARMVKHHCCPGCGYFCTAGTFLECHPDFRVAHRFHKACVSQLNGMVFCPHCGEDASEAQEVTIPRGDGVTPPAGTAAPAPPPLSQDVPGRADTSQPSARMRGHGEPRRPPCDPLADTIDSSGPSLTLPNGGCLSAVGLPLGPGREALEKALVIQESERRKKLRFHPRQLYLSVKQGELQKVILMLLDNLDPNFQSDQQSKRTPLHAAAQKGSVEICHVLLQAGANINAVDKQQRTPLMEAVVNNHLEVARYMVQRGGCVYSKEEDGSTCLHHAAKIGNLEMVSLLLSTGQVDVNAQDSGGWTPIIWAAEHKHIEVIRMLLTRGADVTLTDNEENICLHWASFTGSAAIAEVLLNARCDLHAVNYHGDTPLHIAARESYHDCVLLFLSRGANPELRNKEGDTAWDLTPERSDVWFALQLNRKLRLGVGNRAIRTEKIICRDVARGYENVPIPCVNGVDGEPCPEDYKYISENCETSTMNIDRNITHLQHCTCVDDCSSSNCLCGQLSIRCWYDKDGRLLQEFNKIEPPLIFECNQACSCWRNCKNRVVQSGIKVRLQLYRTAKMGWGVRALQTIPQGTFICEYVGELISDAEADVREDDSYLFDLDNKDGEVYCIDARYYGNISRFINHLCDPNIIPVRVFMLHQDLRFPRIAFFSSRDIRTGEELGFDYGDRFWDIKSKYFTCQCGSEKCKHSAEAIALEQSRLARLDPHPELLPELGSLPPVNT
T1 sequence (Q9H9B1 2-1298 limits assumed): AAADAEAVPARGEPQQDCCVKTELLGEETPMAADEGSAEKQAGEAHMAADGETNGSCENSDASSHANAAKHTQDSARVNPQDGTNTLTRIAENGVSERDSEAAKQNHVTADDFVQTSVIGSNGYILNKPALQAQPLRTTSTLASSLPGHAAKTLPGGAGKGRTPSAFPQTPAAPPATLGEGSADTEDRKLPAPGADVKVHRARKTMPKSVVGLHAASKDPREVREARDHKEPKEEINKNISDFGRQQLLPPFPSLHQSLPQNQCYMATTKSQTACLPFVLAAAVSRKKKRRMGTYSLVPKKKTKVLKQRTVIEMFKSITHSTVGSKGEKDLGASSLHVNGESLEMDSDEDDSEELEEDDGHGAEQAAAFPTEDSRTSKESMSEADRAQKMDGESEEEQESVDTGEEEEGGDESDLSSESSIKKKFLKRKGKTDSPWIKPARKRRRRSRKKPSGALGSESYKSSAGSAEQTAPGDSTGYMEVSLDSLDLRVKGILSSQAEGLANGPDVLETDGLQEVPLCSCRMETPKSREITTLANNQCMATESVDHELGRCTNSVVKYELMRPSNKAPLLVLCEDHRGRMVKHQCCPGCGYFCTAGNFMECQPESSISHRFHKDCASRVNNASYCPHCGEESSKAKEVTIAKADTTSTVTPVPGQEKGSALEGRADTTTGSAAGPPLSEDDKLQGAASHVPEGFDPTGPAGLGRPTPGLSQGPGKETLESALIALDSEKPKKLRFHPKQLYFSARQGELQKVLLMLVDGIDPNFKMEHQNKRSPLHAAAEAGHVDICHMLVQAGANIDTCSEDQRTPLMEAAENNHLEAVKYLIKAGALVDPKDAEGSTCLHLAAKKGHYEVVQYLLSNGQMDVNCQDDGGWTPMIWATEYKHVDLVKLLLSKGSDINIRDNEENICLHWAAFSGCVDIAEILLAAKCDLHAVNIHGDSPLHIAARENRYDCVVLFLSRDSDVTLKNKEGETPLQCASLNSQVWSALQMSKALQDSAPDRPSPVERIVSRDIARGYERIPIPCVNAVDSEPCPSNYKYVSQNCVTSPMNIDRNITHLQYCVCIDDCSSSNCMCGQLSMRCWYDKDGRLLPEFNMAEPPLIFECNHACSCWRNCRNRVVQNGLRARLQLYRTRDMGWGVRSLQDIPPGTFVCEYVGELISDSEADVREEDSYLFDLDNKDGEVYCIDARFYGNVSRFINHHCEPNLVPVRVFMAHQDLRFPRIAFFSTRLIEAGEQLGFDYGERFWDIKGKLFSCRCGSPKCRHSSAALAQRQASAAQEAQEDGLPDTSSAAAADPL

3×MBT domain of L3MBTL1 = assay: Triple SILAC pull-down, 3xMBT/3xMBTD355N ratio (cytoplasmic, nuclear and chromatin fractions of 293T cells); format: binding, human; conditions: SILAC ratio, pull-down 3xMBT vs 3xMBTD355N; for 3xMBT/D355N UNC Heavy: experiment with UNC0638 in heavy SILAC media; for 3xMBT/D355N UNC Light: experiment with UNC0638 in light SILAC media;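 for all read-outs here: proteins quantified with MaxQuant, requiring at least two unique peptides and quantification in both label directions, normalized to the mean of proteins from a digested loading control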

Relative to UNC0638 UNC Heavy (G9a and GLP): 0.11 log base 2
Relative to UNC0638 UNC Light (G9a and GLP): 0.35 log base 2
Relative to UNC0638 Average (G9a and GLP): 0.23 log base 2
B1: SAFB (protein, UniProt Q15424 2-915, looked up)
Scaffold attachment factor B1: AETLSGLGDSGAAGAAALSSASSETGTRRLSDLRVIDLRAELRKRNVDSSGNKSVLMERLKKAIEDEGGNPDEIEITSEGNKKTSKRSSKGRKPEEEGVEDNGLEENSGDGQEDVETSLENLQDIDIMDISVLDEAEIDNGSVADCVEDDDADNLQESLSDSRELVEGEMKELPEQLQEHAIEDKETINNLDTSSSDFTILQEIEEPSLEPENEKILDILGETCKSEPVKEESSELEQPFAQDTSSVGPDRKLAEEEDLFDSAHPEEGDLDLASESTAHAQSSKADSLLAVVKREPAEQPGDGERTDCEPVGLEPAVEQSSAASELAEASSEELAEAPTEAPSPEARDSKEDGRKFDFDACNEVPPAPKESSTSEGADQKMSSPEDDSDTKRLSKEEKGRSSCGRNFWVSGLSSTTRATDLKNLFSKYGKVVGAKVVTNARSPGARCYGFVTMSTAEEATKCINHLHKTELHGKMISVEKAKNEPVGKKTSDKRDSDGKKEKSSNSDRSTNLKRDDKCDRKDDAKKGDDGSGEKSKDQDDQKPGPSERSRATKSGSRGTERTVVMDKSKGVPVISVKTSGSKERASKSQDRKSASREKRSVVSFDKVKEPRKSRDSESHSRVRERSEREQRMQAQWEREERERLEIARERLAFQRQRLERERMERERLERERMHVEHERRREQERIHREREELRRQQELRYEQERRPAVRRPYDLDRRDDAYWPEAKRAALDERYHSDFNRQDRFHDFDHRDRGRYPDHSVDRREGSRSMMGEREGQHYPERHGGPERHGRDSRDGWGGYGSDKRMSEGRGLPPPPRRDWGDHGRREDDRSWQGTADGGMMDRDHKRWQGGERSMSGHSGPGHMMNRGGMSGRGSFAPGGASRGHPIPHGGMQGGFGGQSRGSRPSDARFTRRY
3xMBT/D355N UNC Heavy (3×MBT domain of L3MBTL1): 2.38 log base 2
3xMBT/D355N UNC Light (3×MBT domain of L3MBTL1): 2.76 log base 2

Relative to UNC0638 UNC Heavy (G9a and GLP): 0.18 log base 2
Relative to UNC0638 UNC Light (G9a and GLP): 0.29 log base 2
Relative to UNC0638 Average (G9a and GLP): 0.24 log base 2
B2: RCC1 (protein, UniProt P18754 2-421, looked up)
Regulator of chromosome …: SPKRIAKRRSPPADAIPKSKKVKVSHRSHSTEPGLVLTLGQGDVGQLGLGENVMERKKPALVSIPEDVVQAEAGGMHTVCLSKSGQVYSFGCNDEGALGRDTSVEGSEMVPGKVELQEKVVQVSAGDSHTAALTDDGRVFLWGSFRDNNGVIGLLEPMKKSMVPVQVQLDVPVVKVASGNDHLVMLTADGDLYTLGCGEQGQLGRVPELFANRGGRQGLERLLVPKCVMLKSRGSRGHVRFQDAFCGAYFTFAISHEGHVYGFGLSNYHQLGTPGTESCFIPQNLTSFKNSTKSWVGFSGGQHHTVCMDSEGKAYSLGRAEYGRLGLGEGAEEKSIPTLISRLPAVSSVACGASVGYAVTKDGRVFAWGMGTNYQLGTGQDEDAWSPVEMMGKQLENRVVLSVSSGGQHTVLLVKDKEQS
3xMBT/D355N UNC Heavy (3×MBT domain of L3MBTL1): 2.15 log base 2
3xMBT/D355N UNC Light (3×MBT domain of L3MBTL1): 2.25 log base 2

Relative to UNC0638 UNC Heavy (G9a and GLP): 0.28 log base 2
Relative to UNC0638 UNC Light (G9a and GLP): 0.18 log base 2
Relative to UNC0638 Average (G9a and GLP): 0.23 log base 2
B3: PPP1CB (protein, UniProt P62140 2-327, looked up)
Serine/threonine-protein …: ADGELNVDSLITRLLEVRGCRPGKIVQMTEAEVRGLCIKSREIFLSQPILLELEAPLKICGDIHGQYTDLLRLFEYGGFPPEANYLFLGDYVDRGKQSLETICLLLAYKIKYPENFFLLRGNHECASINRIYGFYDECKRRFNIKLWKTFTDCFNCLPIAAIVDEKIFCCHGGLSPDLQSMEQIRRIMRPTDVPDTGLLCDLLWSDPDKDVQGWGENDRGVSFTFGADVVSKFLNRHDLDLICRAHQVVEDGYEFFAKRQLVTLFSAPNYCGEFDNAGGMMSVDETLMCSFQILKPSEKKAKYQYGGLNSGRPVTPPRTANPPKKR
3xMBT/D355N UNC Heavy (3×MBT domain of L3MBTL1): 2.35 log base 2
3xMBT/D355N UNC Light (3×MBT domain of L3MBTL1): 2.55 log base 2

Relative to UNC0638 UNC Heavy (G9a and GLP): 0.46 log base 2
Relative to UNC0638 UNC Light (G9a and GLP): 0.01 log base 2
Relative to UNC0638 Average (G9a and GLP): 0.23 log base 2
B4: SRP9 (protein, UniProt P49458 2-86, looked up)
Signal recognition particle 9 …: PQYQTWEEFSRAAEKLYLADPMKARVVLKYRHSDGNLCVKVTDDLVCLVYKTDQAQDVKKIEKFHSQLMRLMVAKEARNVTMETE
3xMBT/D355N UNC Heavy (3×MBT domain of L3MBTL1): 1.88 log base 2
3xMBT/D355N UNC Light (3×MBT domain of L3MBTL1): 1.52 log base 2

Relative to UNC0638 UNC Heavy (G9a and GLP): 0.61 log base 2
Relative to UNC0638 UNC Light (G9a and GLP): −0.15 log base 2
Relative to UNC0638 Average (G9a and GLP): 0.23 log base 2
B5: CNN3 (protein, UniProt Q15417 1-329, looked up)
Calponin-3: MTHFNKGPSYGLSAEVKNKIASKYDHQAEEDLRNWIEEVTGMSIGPNFQLGLKDGIILCELINKLQPGSVKKVNESSLNWPQLENIGNFIKAIQAYGMKPHDIFEANDLFENGNMTQVQTTLVALAGLAKTKGFHTTIDIGVKYAEKQTRRFDEGKLKAGQSVIGLQMGTNKCASQAGMTAYGTRRHLYDPKMQTDKPFDQTTISLQMGTNKGASQAGMLAPGTRRDIYDQKLTLQPVDNSTISLQMGTNKVASQKGMSVYGLGRQVYDPKYCAAPTEPVIHNGSQGTGTNGSEISDSDYQAEYPDEYHGEYQDDYPRDYQYSDQGIDY
3xMBT/D355N UNC Heavy (3×MBT domain of L3MBTL1): 2.36 log base 2
3xMBT/D355N UNC Light (3×MBT domain of L3MBTL1): 2.35 log base 2

Reference: patent US20140274782A1, “AFFINITY REAGENTS AND METHODS FOR DETECTION, PURIFICATION, AND PROTEOMIC ANALYSIS OF METHYLATED PROTEINS” (The Board of Trustees of the Leland Stanford Junior …, priority 2013, published 2014)
